This passage reports Kd results from patent publication EP4663199A1.

As a reminder, the Kd is the free concentration of one partner at which half of the binding sites on the other are occupied at equilibrium, for simple one-to-one binding. Low readings indicate tighter binding, high ones weaker binding.

The experiment has as its target bispecific binding molecule comprising a first specific binding molecule (comprising SEQ ID NO:265 a).

Chain of bispecific binding molecule comprising a first specific binding molecule (comprising SEQ ID NO:265 a) (chain, as listed by the source, chain 1 of 3): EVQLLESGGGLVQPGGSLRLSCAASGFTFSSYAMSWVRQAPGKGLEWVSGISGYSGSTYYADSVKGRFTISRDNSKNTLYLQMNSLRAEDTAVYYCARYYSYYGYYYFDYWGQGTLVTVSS
Chain of bispecific binding molecule comprising a first specific binding molecule (comprising SEQ ID NO:265 a) (chain, as listed by the source, chain 2 of 3): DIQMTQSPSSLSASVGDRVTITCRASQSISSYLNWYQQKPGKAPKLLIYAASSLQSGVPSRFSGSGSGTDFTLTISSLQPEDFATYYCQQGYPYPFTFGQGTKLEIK
Chain of bispecific binding molecule comprising a first specific binding molecule (comprising SEQ ID NO:265 a) (chain, as listed by the source, chain 3 of 3): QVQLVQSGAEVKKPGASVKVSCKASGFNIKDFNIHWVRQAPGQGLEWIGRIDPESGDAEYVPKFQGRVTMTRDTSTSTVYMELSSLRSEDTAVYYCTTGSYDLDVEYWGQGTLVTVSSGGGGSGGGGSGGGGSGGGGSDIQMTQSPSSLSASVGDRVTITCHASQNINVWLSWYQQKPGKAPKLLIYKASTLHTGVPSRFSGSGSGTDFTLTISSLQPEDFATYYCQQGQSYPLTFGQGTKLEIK

Take FIGITELKK (modifications not checked) [tag moiety … (SEQ ID NO:2)]: the Kd was 9.4 pM.
